From patent US20150025225A1 (SHIONOGI, published 2015)

Biological target: T1, human EL-411-459 fragment (human)
T1 construct: Used as HEK293 lysate
T1 chain: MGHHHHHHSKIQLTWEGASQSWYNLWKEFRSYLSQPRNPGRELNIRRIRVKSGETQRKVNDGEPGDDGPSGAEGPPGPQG
Test: sandwich ELISA with human EL fragment lysate, as Example 10

binding result: binds
B1: 47B2 antibody (antibody, IgG2a, V domains shown)
VH: QVALKESGPGILQPSQTLSLTCSFSGFSLSTSGMGVGWIRQPSGKGLEWLAHIWWHGNKYYSTGLKSRLTISKDTSNNQVFLKIASVDTADTATYYCARISAGYPLDYWGQGTSVTVSS
VL: DIQMTQSPSSLSASLGGKVTITCKASQDINKYIVWYQHKPGKGPRLLIHYTSTLQPGFPSRFSGSGSGRDYSLSITNLEPEDIATYYCLQYDNLLWTFGGGTKLEIK
